Key:
[1] = molecular target: amphyphisin SH3 (AMPH_HUMAN) (UniProt P49418); experiment: SPOT array
[2] = molecular target: endophilin SH3 (SH3G2_HUMAN) (UniProt Q99962); experiment: SPOT array

Substance: P46781 11-24
- normalised SPOT signal, Boehringer light units (BLU); mean over the file's lines of this peptide [1]: 245
- normalised SPOT signal, Boehringer light units (BLU); mean over the file's lines of this peptide [2]: 269
